Experiments:
human C5 (Homo sapiens) = human C5 (Homo sapiens) (UniProt P01031); assay: cell_activity; details: maximal 2'-OMe purine and 2'-F pyrimidine substitution; complement-dependent sheep erythrocyte hemolysis in human serum; positive control
human C5a (Homo sapiens) = target: T1, human C5a (Homo sapiens) (UniProt P01031); assay: SPR; details: L-RNA
T1 sequence: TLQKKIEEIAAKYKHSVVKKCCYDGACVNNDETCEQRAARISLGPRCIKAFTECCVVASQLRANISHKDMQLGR

mouse C5a (Mus musculus) = target: T2, mouse C5a (Mus musculus) (UniProt P06684); assay: SPR; details: L-RNA, Biacore, HBS-EP, 37 C
T2 sequence: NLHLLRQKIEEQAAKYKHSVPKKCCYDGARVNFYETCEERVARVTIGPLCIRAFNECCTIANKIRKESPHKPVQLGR

[1] = target: T3, human desArg-C5a (Homo sapiens) (UniProt P01031); assay: SPR; details: L-RNA, 5' 40 kDa PEG, Biacore, HBS-EP, 37 C
T3 sequence: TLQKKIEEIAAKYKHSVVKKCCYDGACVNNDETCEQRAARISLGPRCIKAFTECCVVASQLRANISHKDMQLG

[2] = target: T4, mouse desArg-C5a (Mus musculus) (UniProt P06684); assay: SPR; details: L-RNA; L-2'-deoxy dU7,dU28,dC38; 5' 40 kDa PEG; Biacore, HBS-EP, 37 C
T4 sequence: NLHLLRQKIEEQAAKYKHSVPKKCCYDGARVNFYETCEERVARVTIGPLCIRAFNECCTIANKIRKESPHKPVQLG

[3] = L-2'-deoxy dU5,dG12,dA13,dU26,dU28,dC36, terminal stretch truncated to one nucleotide, reduced activity, exact value in figure

C5C6 aptamer (Biesecker et al. 1999)
IC50 (human C5 (Homo sapiens)): 1000 nM

GAUGUGGUGGUGAAGGGUUGUUGGGUGUCGACGCACAGC [NOX-D19001-6xDNA-024]
Kd (human C5a (Homo sapiens); [3]): < 10 nM

GAUGUGGUGGUGAAGGGUUGUUGGGUGUCGACGCACAGGC [NOX-D19001-6xDNA-010]
Kd (human C5a (Homo sapiens); [3]): < 10 nM

GAUGUGGUGGUGAAGGGUUGUUGGGUGUCGACGCACGC [NOX-D19001-6xDNA-029]
Kd (human C5a (Homo sapiens); [3]): < 10 nM

GCCUGAUGUGGUGGUGAAGGGUUGUUGGGUGUCGACGCACAGGC [NOX-D19001 (274-C8-002-G14)]
Kd (mouse C5a (Mus musculus)): 0.3 nM
Kd (human C5a (Homo sapiens); Biacore, HBS-EP, 37 C): 1.38 nM

GCCUGAUGUGGUGGUGAAGGGUUGUUGGGUGUCGACGCACAGGC [NOX-D19001-6xDNA (D09-16-17-30-32-40)]
Kd (human C5a (Homo sapiens); L-2'-deoxy dU9,dG16,dA17,dU30,dU32,dC40, Biacore, HBS-EP, 37 C): 0.361 nM

GCCUGAUGUGGUGGUGAAGGGUUGUUGGGUGUCGACGCACAGGC [NOX-D19001-D09]
Kd (human C5a (Homo sapiens); L-2'-deoxy dU9, Biacore, HBS-EP, 37 C): 0.709 nM

GCGAUGUGGUGGUGAAGGGUUGUUGGGUGUCGACGCAC [NOX-D19001-6xDNA-032]
Kd (human C5a (Homo sapiens); L-2'-deoxy dU7,dG14,dA15,dU28,dU30,dC38, terminal stretch truncated to one nucleotide, reduced activity, exact value in figure): < 10 nM

GCGAUGUGGUGGUGAAGGGUUGUUGGGUGUCGACGCACGC [NOX-D20 (NOX-D19001-6xDNA-020-5'40kDa-PEG)]
Kd ([1]; L-2'-deoxy dU7,dG14,dA15,dU28,dU30,dC38): 0.316 nM
Kd (mouse C5a (Mus musculus); L-2'-deoxy dU7,dG14,dA15,dU28,dU30,dC38, 5' 40 kDa PEG): 0.019 nM
Kd (human C5a (Homo sapiens); L-2'-deoxy dU7,dG14,dA15,dU28,dU30,dC38, 5' 40 kDa PEG, Biacore, HBS-EP, 37 C): 0.299 nM

GCGAUGUGGUGGUGAAGGGUUGUUGGGUGUCGACGCACGC [NOX-D21 (NOX-D19001-2dU-1dC-020-5'40kDa-PEG)]
Kd ([1]; L-2'-deoxy dU7,dU28,dC38): 0.854 nM
Kd (mouse C5a (Mus musculus); L-2'-deoxy dU7,dU28,dC38, 5' 40 kDa PEG): 0.029 nM
Kd [2]: 0.028 nM
Kd (human C5a (Homo sapiens); L-2'-deoxy dU7,dU28,dC38, 5' 40 kDa PEG, Biacore, HBS-EP, 37 C): 0.815 nM

GCGAUGUGGUGGUGAAGGGUUGUUGGGUGUCGACGCACGC [NOX-D19001-2xDNA-020]
Kd (human C5a (Homo sapiens); L-2'-deoxy dU7,dU28, stated as improved by more than factor 10 vs 11.3 nM of NOX-D19001-020, exact value in figure): < 1.13 nM

GCGAUGUGGUGGUGAAGGGUUGUUGGGUGUCGACGCACGC [NOX-D19001-3dU-1dC-020]
Kd (human C5a (Homo sapiens); L-2'-deoxy dU7,dU28,dU30,dC38, stated as improved by more than factor 10 vs 11.3 nM of NOX-D19001-020, exact value in figure): < 1.13 nM

GCGAUGUGGUGGUGAAGGGUUGUUGGGUGUCGACGCACGC [NOX-D19001-3xDNA-020]
Kd (human C5a (Homo sapiens); L-2'-deoxy dU7,dU28,dU30, stated as improved by more than factor 10 vs 11.3 nM of NOX-D19001-020, exact value in figure): < 1.13 nM

GCGAUGUGGUGGUGAAGGGUUGUUGGGUGUCGACGCACGC [NOX-D19001-020]
Kd (human C5a (Homo sapiens); Biacore, HBS-EP, 37 C): 11.3 nM

GCGAUGUGGUGGUGAAGGGUUGUUGGGUGUCGACGCACGC [NOX-D20001 (NOX-D19001-6xDNA-020)]
Kd (human C5a (Homo sapiens); L-2'-deoxy dU7,dG14,dA15,dU28,dU30,dC38, Biacore, HBS-EP, 37 C): 0.3 nM

GCGAUGUGGUGGUGAAGGGUUGUUGGGUGUCGACGCACGC [NOX-D21001 (NOX-D19001-2dU-1dC-020)]
Kd (human C5a (Homo sapiens); L-2'-deoxy dU7,dU28,dC38, stated as improved by more than factor 10 vs 11.3 nM of NOX-D19001-020, exact value in figure): < 1.13 nM

Reference: patent US20180223285
